Consider 109 sequences from the supplement of paper PMC9942255.

This data set concerns Bacillus subtilis DB104 (SP-AmyQ fusion secretion). Nature of the data set: AmyQ secretion efficiency, weighted average sort bin (1 = best secretion, 10 = worst) (bin number (weighted average, 1-10)); higher = lower secretion efficiency. The gist of the method: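 Secretion score gives the read-frequency-weighted average bin number, normalised to beads per bin, with low-abundance sequences left out. A B. subtilis DB104 library expressing mature AmyQ fused to designed signal peptides, integrated at amyE, was encapsulated with fluorescein-starch at about 0.3 cells per ~65 nL alginate bead. Beads were grown about 13 h at room temperature, stained with nile red, and the occupied ones were sorted by large-particle flow cytometry into 10 equally populated bins by green/red fluorescence ratio before the amplicons from each bin were Illumina-sequenced.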

For the sequence MKRFLIGAGVAAVILSGWFIADHQTHVQEM, the AmyQ secretion efficiency was 6.76.
The value for MTGLWRSLALCGLALTLAPCAQAAEP was 2.01.
The sequence MKKVLMAFIICLSLILSVLAAPPSGAKAKRR gave an AmyQ secretion efficiency of 2.43.
The same measure for MFNRLFRVCFLAALIMAFTLPNSVYRQKP: 7.13; for MSLYTVIASILLSFLSVLSGGHHESKAFPV: 5.37; for MRNLTKTSLLLAGLCTAAQMVFVTHASAADE: 2.81.
The same measure for MTKLKMLSMLTVMIASLFIFSSQQLAVQY: 6.53.
Sequence MRKNRILALFVLSLGLLSFMVTPVSTASK gave an AmyQ secretion efficiency of 5.93.
The same measure for MGMKKKYTQGSRYRALGLALVGGGTWAAFN: 7.3; for MAIIIAIIAAVIVIAALITFNVRNESPG: 7.39.
The value for MKLRKVLTGSVLSLGLLVSASPAFARKR was 5.66.
The sequence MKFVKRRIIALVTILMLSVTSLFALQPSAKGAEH yielded an AmyQ secretion efficiency of 3.59.
In the case of MLKKIALTLCPAIVGSLLFFTAPESAHVS, the AmyQ secretion efficiency worked out at 5.94.
Sequence MNSMTIWTIILGALLVCCIAVAYTLTKSQAGASSS came in with an AmyQ secretion efficiency of 6.92.
Turning to MRKTIFAFLTGLMMFGTITAPSASPD, the AmyQ secretion efficiency was 5.98.
The value for MGLGKKLSVAVAASFMSLSISLPGQQAAEG was 3.99; that for MKLAKRVSALTPSTTLAITSKAKEL was 8.31; that for MKSCKQLIVCSLAAILLLIPSVWFAADS was 4.55.
The value for MKLSVKIAGVLTVAAAAMTAGMYATAKGN was 5.78; that for MKSKGSIMACLILFSFTITSTVSATTFINTETISAFSN was 6.02; that for MLKKIALTLCPAIVGSLLFFTAPWSAHVS was 4.74.
The sequence MKRRKNVCLTALLSVLLVAGSVPFHAEAKKP showed an AmyQ secretion efficiency of 2.59.
The same measure for MFKKHMNNFTISLLIIFLLASAVLAKPIEAHTV: 3.28; for MKKTIMSFVAVAALSTTAFGAHASPKEI: 3.96; for MRPVFPTSQKKYLFLSCFFGARQTEASASKR: 7.29.
Consider MTMLRKIRKWILLLCIIPLFAFTVIASGKEV, for which the AmyQ secretion efficiency worked out at 6.76.
The same measure for MKKRLIAPMLLSAASLAFFAMSGSMQAAAY: 5.75; for MPIKKKVMMCLAVTLVFGSMSFPTLTNEGGFKE: 4.78.
The value for MKRLLVSLRVWMVFLMNWVTPDRKTKAAAVY was 7.79.
The value for MKKWMAGLFLAAAVLLCLMVPQQTTGTSGSVIQGASS was 4.56.
MRKRKKRLSVAVAASFMSLSISLPGVQAAEG: the AmyQ secretion efficiency was 2.16.
The same measure for MKNMSCKLVVSVTLFFSFLTIGPLCHAQNS: 1.32; for MGRFLIGAGVAAVILSGWFIADHQTHSQEM: 6.17; for MKRLLSTLLIGIMLLTFAPSAFGKQD: 1.17.
The same measure for MLKKIALTLCPAIVGSLLFFTAPASARKR: 6.88; for MKSKWMSGLLLVAVGFSFRKKMVHAGET: 7.87.
In turn, MTKKAWFLPLVCVLLISGWLAPAASKSAQTT yielded an AmyQ secretion efficiency of 4.7.
The value for MRFTKVVGFLSVLGLAAVFPLTTQAEKA was 4.74; that for MKKRKKKSLLALLAVVAFAFTDSSKAKAAEA was 2.95; that for MGSTWSLIVCLTALLSVLLVAGSVPFHAEAKKP was 4.11.
The value for MRPVFPLILSAVLFLSCFFGARQTEASASSD was 1.96; that for MKLKSKLLLSCLALSTVFVATTIWNAPTH was 6.19; that for MRSKKILWISLLFALTLIFTMAFSNMSAQAAGK was 2.64.
The same measure for MKLWMRKTLVVLFTIVTFGLVSPPAAVMADKP: 2.79.
MKKRKRRNFKRFIAAFLVLALMISLVPADMLAKST had an AmyQ secretion efficiency of 1.76.
The same measure for MKLKSKLLLSCLALSTVFVATTILNAPTH: 6.08; for MKKKLAAGLTASAIVGTTLVVTPREAATI: 6.83; for MLKKKWMVGLLAGCLAAGSAGFSYNAFATEN: 4.95.
The value for MKKRFFGPIILAFILFAGAIDIPS was 6.03; that for MLKKKWMVGLLAGCLAAGGFSYNAFPTEN was 5.71; that for MKKGIIRFLLVSFVLFFALDEDITGVQAAPA was 3.78.
The value for MKKRFSLIMMTGLLFGLTSPAFAAPE was 3.06; that for MLKKKWMVGLLAGCLAAGGFSYNAFITEN was 6.43.
MKLSVKIAGVLTVAAAAMTAKMYATLKGN gave an AmyQ secretion efficiency of 7.31.
Turning to MKKVLMAFIICLSLILSVLAAPPSGAKAARR, the AmyQ secretion efficiency amounted to 2.06.
The value for MSGTCSIVCLWILVLLLSCLSGKSAYAATS was 3.6; that for MKKKQVSHAIIISVMLSFVIAVFHTIHKSELTP was 4.63; that for MKKAFILSAAAAVGLFTFGGVQQISAKEL was 3.06.
The same measure for MKKWMAGLFLAAAVLLCLMVPQQKQGASS: 3.94; for MKQGKFSKRLILLLMLTLVVAPKEKAEAASS: 1.59; for MKKWMITIAMLILAGIALFVFISPVKSHKT: 6.53.
Sequence MLTFLIGAGVAAVILSGWFIADHQTHSQEM registered an AmyQ secretion efficiency of 6.55.
The same measure for MNFKKTVVSALSISALALSVSGVVSAHEI: 2.69; for MLKKKWMVGLLAGCLAAGGFSYNSFATEN: 5.59; for MFKFKKNFLVGLSAALMSIKKKKRRASAAST: 7.19.
Sequence MKKRLIAPMLLSAASLAFFAMAQAAAY registered an AmyQ secretion efficiency of 6.11.
The same measure for MRNLTKTSLLLAGLCTAAQMVFVTHWSAEES: 8.27; for MFKKLLLATSALTPLDGHAKAQEV: 5.8; for MNLRKILLSSALSLGMLVSAAPVLSTSS: 4.72.
The same measure for MKKGIIRKTLVSFVLFFALSTGITGVQAAPA: 2; for MTKTIFAFLTGLMMFGTITAASASPD: 3.99.
With MKKLLAAGIIGLLTVSIASPYFAAEK, the AmyQ secretion efficiency was 6.19.
The same measure for MSTNLLSSLAISALSLGLLVSAPTASFAAES: 3.94.
The same measure for MKKRLIAPMLLSAASLAFFAMSGSGQAAAY: 5.16; for MKKWIYVVLVLSIAGIGGPSVHAASS: 2.74.
The same measure for MLTKRLLTIYIMLLGLIAWFPGAAQCEEK: 2.82.
Regarding MRKKLKWLSFLLGFIILLFLFKYQFSFNDS, the AmyQ secretion efficiency was determined as 6.3.
Consider MKKWMAGLFLAAAVLLCLMVPQQMQGASS, for which the AmyQ secretion efficiency was determined as 5.46.
The value for MKLAKRVSALTPSTTLAITAKADEE was 6.16; that for MRNLTKTSLLLAGLCTAAQMVFVTHASCEES was 4.5.
The same measure for MKLSVKIAGVLTVAAAAMTAKMYMTAKGN: 6.8; for MKWMCSICCAAVLLAGLGAAQAEAV: 3.8; for MPYLKRVLLLLVTGLFMSLFAVTATGSAQTG: 1.13.
The value for MRNLTKTSLLLAGLCTAAQMVFVTHLSAEES was 3.52; that for MTMLSMIIGWILLLCIIPLFAFTVIASGKEV was 7.31; that for MTMLRKIIGWILLLCIIASFIVTPLFAFTVIASGKEV was 7.88.
Regarding MFTFSGSMFLVGLSAALMSISLFSATASAAST, the AmyQ secretion efficiency was found to be 1.64.
Take MTKKAWFLPLVCVLLISGWLAPAASASTQTT: the AmyQ secretion efficiency is 2.01.
The value for MKKAKKKKLSLGLVFGFSYGAGHVAEAKTK was 7.52; that for MKTLRTLCVLMILSGVIFFGLKLDAKDI was 7.62; that for MKWMCSICCAAVLLAGEDEDEDAQAEAV was 8.04.
The value for MNLRKILLSSALSLGMLVSAAPTLATSS was 2.34; that for MKKQIITATTAVVLGSTLFAKKASAQSI was 6.18; that for MIIWIYVVLVLSIAGIGGFSVHAASS was 7.11.
The value for MKKKLAAGLTASAIVGTTLVVTPFEAATI was 5.7; that for MKKTIMSFVAVAALSTTAFEEDHASAKEI was 2.56; that for MKSKWMSGLLLVAVGFSFTQVMYHAGET was 7.02.
In turn, MRKKRVITCVMAASLTLGPAGYASAKED displayed an AmyQ secretion efficiency of 3.6.
The value for “MKSKGSIMACLILFSFTITIILVTLIIVATFINTETISAFSN” was 6.84; that for MKLSVKIAGVLTVAAAAMTAKMYYTAKGN was 6.5; that for MNKKKKVVSALSISALALSVSGVASAHEI was 3.7.
For MRKKKWMVGLLAGCLAAGGFSYNAFATEN, the AmyQ secretion efficiency was 3.58.
MKRLALGAALTIAPLSFASAEEN: the AmyQ secretion efficiency stood at 5.98.
For MNKKYFKRRKCKRFTSALFPTFSSVTAAQG, the AmyQ secretion efficiency is 6.71.
The same measure for MKKWIYGGQTGKIAGIGGFSVHAASS: 6.97; for MKKCLLFLTTIALILSLSTNGFAKNT: 6.12; for MKKFLLVSFVLFFALSTGITGVQAAPA: 2.2.
The value for MMSRKILLSSALSLGMLVSAAPVLATSS was 3.37; that for MKKWMITIAMLILAGIALFVFIFSPLKSHKT was 7.63.
